{
  "source": "the emibetuzumab library of Makowski et al. (2022)",
  "parents": {"B1": {"name": "VH:VL chains; a variant is named by its letters at X, in order (parent)", "chain 1": "QVQLVQSGAEVKKPGASVKVSCKASGYTFTDYXMHWVRQAPGQGLEWMGXVNPNXXXTTYNQKFEGRVTMTTDTSTSTAYMELRSLRSDDTAVYYCARXNXLDXWGQGTTVTVSS", "chain 2": "DIQMTQSPSSLSASVGDRVTITCSVSSSVSSIYLHWYQQKPGKAPKLLIYSTSNLASGVPSRFSGSGSGTDFTLTISSLQPEDFATYYCQVYSGYPLTFGGGTKVEIK"}},
  "data": [
    {"variants_of": "B1", "test": "yeast display scFab, FACS + sequencing", "procedure,_shortened": "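For the non-specific binding call, a heavy-chain CDR mutant scFab library on the yeast surface was FACS-sorted and samples from two replicates were deep sequenced. Cells were labelled with anti-Myc and either biotinylated ovalbumin (260 μg/mL in PBSB, 3 h, room temperature) or soluble membrane proteins (130 μg/mL, 20 min on ice), with gates on the top 25% and bottom 10% of binders. With membrane protein and ovalbumin samples pooled, a sequence in ≥3 of 4 positive samples and no negatives was scored positive, and the converse rule scored negatives.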", "values": [
      {"variant": "FEARDYWD", "non-specific binding call": "binds"},
      {"variant": "VEAGDDVY", "non-specific binding call": "no binding"},
      {"variant": "VEAGDDVV", "non-specific binding call": "no binding"},
      {"variant": "VEARNAGA", "non-specific binding call": "no binding"},
      {"variant": "VATTDSVD", "non-specific binding call": "no binding"},
      {"variant": "FEAGDDGV", "non-specific binding call": "no binding"},
      {"variant": "AEARSDGA", "non-specific binding call": "no binding"},
      {"variant": "SEARSFGV", "non-specific binding call": "no binding"},
      {"variant": "SEARNDGA", "non-specific binding call": "no binding"},
      {"variant": "DEAGDAVV", "non-specific binding call": "no binding"},
      {"variant": "DEARSDGA", "non-specific binding call": "no binding"},
      {"variant": "YEARNAGA", "non-specific binding call": "no binding"},
      {"variant": "SEARSSGF", "non-specific binding call": "no binding"},
      {"variant": "SEARSSGY", "non-specific binding call": "no binding"},
      {"variant": "SEARSSGV", "non-specific binding call": "no binding"},
      {"variant": "SEARSAVY", "non-specific binding call": "no binding"},
      {"variant": "SEARSAVA", "non-specific binding call": "no binding"},
      {"variant": "SEARSAVV", "non-specific binding call": "no binding"},
      {"variant": "SEARSAVS", "non-specific binding call": "no binding"},
      {"variant": "DEARGAGD", "non-specific binding call": "no binding"},
      {"variant": "SEARSYVV", "non-specific binding call": "no binding"},
      {"variant": "SEARSAWA", "non-specific binding call": "no binding"},
      {"variant": "SEARSAWS", "non-specific binding call": "no binding"},
      {"variant": "FEAGDSGA", "non-specific binding call": "no binding"},
      {"variant": "VEAGDSWV", "non-specific binding call": "no binding"},
      {"variant": "AEAGDAVV", "non-specific binding call": "no binding"},
      {"variant": "VEAGDDGA", "non-specific binding call": "no binding"},
      {"variant": "SEARSAGV", "non-specific binding call": "no binding"},
      {"variant": "YATTSFSF", "non-specific binding call": "no binding"},
      {"variant": "VEEEAFAV", "non-specific binding call": "no binding"},
      {"variant": "SEARSDLY", "non-specific binding call": "no binding"},
      {"variant": "SEARSDLA", "non-specific binding call": "no binding"},
      {"variant": "VEAGDDSA", "non-specific binding call": "no binding"},
      {"variant": "AATTSFVV", "non-specific binding call": "no binding"},
      {"variant": "DEAGTAVA", "non-specific binding call": "no binding"},
      {"variant": "SEARSYLV", "non-specific binding call": "no binding"},
      {"variant": "VEARGDWV", "non-specific binding call": "no binding"},
      {"variant": "SEARSDVD", "non-specific binding call": "no binding"},
      {"variant": "SEARSDVV", "non-specific binding call": "no binding"},
      {"variant": "SEARSDVY", "non-specific binding call": "no binding"},
      {"variant": "SEARSDVF", "non-specific binding call": "no binding"},
      {"variant": "AEAGADVV", "non-specific binding call": "no binding"},
      {"variant": "SEAGDAVV", "non-specific binding call": "no binding"},
      {"variant": "FEATASWS", "non-specific binding call": "binds"},
      {"variant": "AATTDSVD", "non-specific binding call": "no binding"},
      {"variant": "SEARSDGF", "non-specific binding call": "no binding"},
      {"variant": "SEARSDGS", "non-specific binding call": "no binding"},
      {"variant": "SEARSDGY", "non-specific binding call": "no binding"},
      {"variant": "VEEEDYSS", "non-specific binding call": "binds"},
      {"variant": "VEEASSWA", "non-specific binding call": "no binding"},
      {"variant": "SEEASAVY", "non-specific binding call": "no binding"},
      {"variant": "FATTDSVD", "non-specific binding call": "no binding"},
      {"variant": "VEAGTAVA", "non-specific binding call": "no binding"},
      {"variant": "VEAGDALV", "non-specific binding call": "no binding"},
      {"variant": "VEAGDAVA", "non-specific binding call": "no binding"},
      {"variant": "SEARSDAS", "non-specific binding call": "no binding"},
      {"variant": "SEARSDAA", "non-specific binding call": "no binding"},
      {"variant": "SEARSDAV", "non-specific binding call": "no binding"},
      {"variant": "SEARSDAD", "non-specific binding call": "no binding"},
      {"variant": "VEAGDAAA", "non-specific binding call": "no binding"},
      {"variant": "VEAGDAAV", "non-specific binding call": "no binding"},
      {"variant": "AATTDSSS", "non-specific binding call": "no binding"},
      {"variant": "SEARSSWS", "non-specific binding call": "no binding"},
      {"variant": "SEARSSWV", "non-specific binding call": "no binding"},
      {"variant": "VEAGDDWV", "non-specific binding call": "no binding"},
      {"variant": "VEAGDSLD", "non-specific binding call": "no binding"},
      {"variant": "DATTDSVD", "non-specific binding call": "no binding"},
      {"variant": "SEARSYAV", "non-specific binding call": "no binding"},
      {"variant": "AEARAAGS chain 1 V37I", "non-specific binding call": "binds"},
      {"variant": "DEEASSWA", "non-specific binding call": "no binding"},
      {"variant": "DEAGGDGY", "non-specific binding call": "no binding"},
      {"variant": "VEAGDAGD", "non-specific binding call": "no binding"},
      {"variant": "VEAGDAGS", "non-specific binding call": "no binding"},
      {"variant": "VEARGDGA", "non-specific binding call": "no binding"},
      {"variant": "VEAGDDAV", "non-specific binding call": "no binding"},
      {"variant": "VEAGDDAA", "non-specific binding call": "no binding"},
      {"variant": "DEARNAGA", "non-specific binding call": "no binding"},
      {"variant": "SEARSALV", "non-specific binding call": "no binding"},
      {"variant": "SEARSALD", "non-specific binding call": "no binding"},
      {"variant": "SEARSALA", "non-specific binding call": "no binding"},
      {"variant": "YEAGTAVA", "non-specific binding call": "no binding"},
      {"variant": "FEATAAGS", "non-specific binding call": "binds"},
      {"variant": "VEEAAAGV", "non-specific binding call": "no binding"},
      {"variant": "VEAGDSSA", "non-specific binding call": "no binding"},
      {"variant": "VEAGDSSS", "non-specific binding call": "no binding"},
      {"variant": "SEARSSLV", "non-specific binding call": "no binding"},
      {"variant": "SEARSSLA", "non-specific binding call": "no binding"},
      {"variant": "SATTDSVD", "non-specific binding call": "no binding"},
      {"variant": "SEARSSAD", "non-specific binding call": "no binding"},
      {"variant": "SEARSSAS", "non-specific binding call": "no binding"},
      {"variant": "VEARNDWA chain 1 M81I", "non-specific binding call": "binds"},
      {"variant": "SEEASDGA", "non-specific binding call": "no binding"},
      {"variant": "SEARSAAV", "non-specific binding call": "no binding"},
      {"variant": "SEEASSSA", "non-specific binding call": "no binding"},
      {"variant": "SEARSSSY", "non-specific binding call": "no binding"},
      {"variant": "SEARSSSF", "non-specific binding call": "no binding"},
      {"variant": "SEARSSSV", "non-specific binding call": "no binding"},
      {"variant": "SEARSSSA", "non-specific binding call": "no binding"},
      {"variant": "SEARSSSD", "non-specific binding call": "no binding"},
      {"variant": "DEAKAAVD", "non-specific binding call": "binds"},
      {"variant": "SEARSDSV", "non-specific binding call": "no binding"},
      {"variant": "SEARSDSF", "non-specific binding call": "no binding"},
      {"variant": "SEARSDWD", "non-specific binding call": "no binding"},
      {"variant": "SEARSDWV", "non-specific binding call": "no binding"},
      {"variant": "SEARSDWA", "non-specific binding call": "no binding"},
      {"variant": "SEARSDWF", "non-specific binding call": "no binding"},
      {"variant": "FEAESYGV", "non-specific binding call": "binds"},
      {"variant": "SEARNAGD", "non-specific binding call": "no binding"},
      {"variant": "VEAGSDGV", "non-specific binding call": "no binding"}
    ]}
  ]
}
